Measured values: paper PMC11636682 (Science Advances, 2024)
No end group written: not given here. *: point of attachment. Farnesyl = CC(C)=CCC/C(C)=C/CC/C(C)=C/C*

Molecular target: T1, phosphodiesterase-δ (PDEδ) (UniProt O43924 1-150)
T1 construct: also called His6-MBP-tev-PDEδ; source: E. coli, purified
Assay: ITC; 1 mM KRAS4a(167–186)HVR-FMe peptide in the syringe, 200 μM PDEδ in the cell; 25°C; 20 mM Hepes pH 7.3, 150 mM NaCl, 5 mM MgCl2, 1 mM TCEP; single binding site model
Details: both partners purified

T1 sequence (O43924 whole entry, stated change not applied): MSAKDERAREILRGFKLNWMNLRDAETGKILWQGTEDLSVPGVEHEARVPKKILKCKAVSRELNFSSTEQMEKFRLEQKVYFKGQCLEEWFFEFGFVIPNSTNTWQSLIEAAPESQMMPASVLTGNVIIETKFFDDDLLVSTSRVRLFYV

B1: KRAS4a(167–186)HVR-FMe peptide (peptide, UniProt P01116-1 167-186, looked up)
peptide: RLKKISKEEKTPGCVKIKKC(Farnesyl)-OMe
notes: KRAS splice variant KRAS4a, hypervariable region, residues 167 to 186 (20-mer ending at the prenylated cysteine); also called prenylated 20-residue KRAS4a HVR peptide; KRAS4a-HVR peptide; source: synthetic peptide, bought: AnaSpec Peptides Inc
  Kd: 27 µM
